Where two headings read alike, the source gives them in different places.
T1: human GFRAL expressed on cells (human, UniProt Q6UXV0 20-394)
T1 sequence: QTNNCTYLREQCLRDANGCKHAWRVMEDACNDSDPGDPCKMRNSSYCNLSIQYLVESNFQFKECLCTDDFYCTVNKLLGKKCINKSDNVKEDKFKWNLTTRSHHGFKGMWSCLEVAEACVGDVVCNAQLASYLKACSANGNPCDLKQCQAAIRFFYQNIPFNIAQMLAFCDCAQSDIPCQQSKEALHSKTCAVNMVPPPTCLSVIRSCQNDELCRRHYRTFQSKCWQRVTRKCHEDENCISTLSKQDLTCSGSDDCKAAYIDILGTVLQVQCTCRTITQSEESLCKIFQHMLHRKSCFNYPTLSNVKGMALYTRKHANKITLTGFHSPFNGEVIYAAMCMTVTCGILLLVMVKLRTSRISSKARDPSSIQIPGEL

T2: GFRα1 (UniProt P56159 25-429, limits assumed)
T2 construct: also called GNFR alpha 1; receptor GFRα1
T2 sequence (looked up): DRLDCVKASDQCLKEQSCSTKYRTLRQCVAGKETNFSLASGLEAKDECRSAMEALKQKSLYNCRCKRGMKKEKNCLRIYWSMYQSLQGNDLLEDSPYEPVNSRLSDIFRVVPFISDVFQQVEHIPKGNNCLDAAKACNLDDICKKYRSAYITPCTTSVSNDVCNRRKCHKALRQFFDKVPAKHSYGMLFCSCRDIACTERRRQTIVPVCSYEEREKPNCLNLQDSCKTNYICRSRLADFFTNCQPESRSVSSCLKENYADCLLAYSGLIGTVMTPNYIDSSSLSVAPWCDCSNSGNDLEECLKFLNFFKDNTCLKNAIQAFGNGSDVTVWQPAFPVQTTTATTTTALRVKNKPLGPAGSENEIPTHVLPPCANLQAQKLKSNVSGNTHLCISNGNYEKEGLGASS

T3: human GFRAL (analyte in Biacore assays) (human, UniProt Q6UXV0 19-351, limits assumed)
T3 construct: injected in solution over captured antibody; also called hGFRAL
T3 sequence: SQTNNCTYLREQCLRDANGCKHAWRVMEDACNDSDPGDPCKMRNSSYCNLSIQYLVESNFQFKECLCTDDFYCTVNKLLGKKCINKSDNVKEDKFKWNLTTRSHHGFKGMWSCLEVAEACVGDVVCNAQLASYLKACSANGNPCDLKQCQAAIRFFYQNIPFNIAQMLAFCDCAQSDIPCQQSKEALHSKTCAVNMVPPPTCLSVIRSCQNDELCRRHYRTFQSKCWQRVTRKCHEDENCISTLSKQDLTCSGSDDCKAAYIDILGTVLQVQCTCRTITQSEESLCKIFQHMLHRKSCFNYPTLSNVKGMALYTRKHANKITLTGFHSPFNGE

T4: mouse GFRAL expressed on cells (mouse, UniProt Q6SJE0 20-393)
T4 sequence: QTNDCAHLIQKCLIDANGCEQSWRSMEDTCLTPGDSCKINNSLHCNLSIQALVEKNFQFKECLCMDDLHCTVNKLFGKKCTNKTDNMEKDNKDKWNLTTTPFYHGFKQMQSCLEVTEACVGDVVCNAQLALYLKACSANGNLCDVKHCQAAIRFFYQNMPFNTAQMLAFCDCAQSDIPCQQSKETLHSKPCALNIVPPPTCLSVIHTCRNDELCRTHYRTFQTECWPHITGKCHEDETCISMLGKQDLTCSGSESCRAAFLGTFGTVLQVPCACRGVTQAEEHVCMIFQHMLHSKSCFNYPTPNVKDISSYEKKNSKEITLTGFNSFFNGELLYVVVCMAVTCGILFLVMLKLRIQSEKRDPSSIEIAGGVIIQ

T5: mouse GFRAL (analyte in Biacore assays) (mouse, UniProt Q6SJE0 20-349, limits assumed)
T5 construct: injected in solution over captured antibody
T5 sequence: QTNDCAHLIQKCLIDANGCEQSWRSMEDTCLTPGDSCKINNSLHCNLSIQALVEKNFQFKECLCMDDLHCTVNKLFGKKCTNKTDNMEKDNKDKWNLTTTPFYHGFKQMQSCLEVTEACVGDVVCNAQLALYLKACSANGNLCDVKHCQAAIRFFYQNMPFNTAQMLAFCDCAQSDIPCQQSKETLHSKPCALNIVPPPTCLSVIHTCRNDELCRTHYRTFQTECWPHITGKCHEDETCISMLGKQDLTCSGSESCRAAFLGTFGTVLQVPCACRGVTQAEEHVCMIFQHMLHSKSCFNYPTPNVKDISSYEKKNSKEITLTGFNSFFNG

B1: humanized anti-GFRAL antibody HC-344e/LC-344h (antibody, IgG1, V domains shown)
VH: QVQLVQSGAEVKKPGSSVKVSCKASGYTFTDYGVIWVRQAPGQGLEWMGWINTYTGEPTYADDLKGRVTFTADESTSTAYMELSSLRSEDTAVYYCARRYGPEDIDYWGQGTTVTVSS
VL: DVVLTQSPLSLPVTLGQPASISCRASESVDNYGISFMSWFQQRPGQSPRLLIYAASHQGSGVPDRFSGSGSGTDFTLKISRVEAEDVGVYFCLQSKEVPWTFGGGTKVEIK
notes: humanized 3P10; also called h3P10
B2: humanized anti-GFRAL antibody HC-344h/LC-344c (antibody, V domains shown)
VH: QIQLVQSGAEVKKPGSSVKVSCKASGYTFTDYGVIWVRQAPGQGLKWMGWINTYTGEPTYADDLKGRVTFTADESTSTAYMELSSLRSEDTAVYYCARRYGPEDIDYWGQGTTVTVSS
VL: DIVLTQSPLSLPVTLGQPASISCRASESVDNYGISFMSWFQQRPGQSPRLLIYAASHQGSGVPDRFSGSGSGTDFTLKISRVEAEDVGVYFCLQSKEVPWTFGGGTKVEIK
notes: humanized 3P10
B3: humanized anti-GFRAL antibody HC-344a/LC-344c (antibody, IgG1, V domains shown)
VH: QVQLVQSGAEVKKPGSSVKVSCKASGYTFTDYGVIWVRQAPGQGLEWMGWINTYTGEPTYADDLKGRVTITADESTSTAYMELSSLRSEDTAVYYCARRYGPEDIDYWGQGTTVTVSS
VL: DIVLTQSPLSLPVTLGQPASISCRASESVDNYGISFMSWFQQRPGQSPRLLIYAASHQGSGVPDRFSGSGSGTDFTLKISRVEAEDVGVYFCLQSKEVPWTFGGGTKVEIK
notes: humanized 3P10
B4: humanized anti-GFRAL antibody HC-344a/LC-344h (antibody, IgG1, V domains shown)
VH: QVQLVQSGAEVKKPGSSVKVSCKASGYTFTDYGVIWVRQAPGQGLEWMGWINTYTGEPTYADDLKGRVTITADESTSTAYMELSSLRSEDTAVYYCARRYGPEDIDYWGQGTTVTVSS
VL: DVVLTQSPLSLPVTLGQPASISCRASESVDNYGISFMSWFQQRPGQSPRLLIYAASHQGSGVPDRFSGSGSGTDFTLKISRVEAEDVGVYFCLQSKEVPWTFGGGTKVEIK
notes: humanized 3P10
B5: humanized anti-GFRAL antibody HC-344h/LC-344h (antibody, IgG1, V domains shown)
VH: QIQLVQSGAEVKKPGSSVKVSCKASGYTFTDYGVIWVRQAPGQGLKWMGWINTYTGEPTYADDLKGRVTFTADESTSTAYMELSSLRSEDTAVYYCARRYGPEDIDYWGQGTTVTVSS
VL: DVVLTQSPLSLPVTLGQPASISCRASESVDNYGISFMSWFQQRPGQSPRLLIYAASHQGSGVPDRFSGSGSGTDFTLKISRVEAEDVGVYFCLQSKEVPWTFGGGTKVEIK
notes: humanized 3P10
B6: antibody designated 3P10 (antibody, V domains shown)
VH: QIQLVQSGPELKKPGETVKISCKASGYTFTDYGVIWVKQAPGKALKWMGWINTYTGEPTYADDLKGRFAFSLETSASSASLQINNLKNEDTATYFCARRYGPEDIDYWGQGTTLTVSS
VL: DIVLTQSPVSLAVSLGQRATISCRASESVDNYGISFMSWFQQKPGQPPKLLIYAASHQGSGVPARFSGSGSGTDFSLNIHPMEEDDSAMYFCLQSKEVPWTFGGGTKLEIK
notes: mouse hybridoma monoclonal; also called 3P10 Hybridoma; m3P10
B7: humanized anti-GFRAL antibody HC-375h/LC-375j (antibody, IgG1, V domains shown)
VH: QVQLVQSGAEVKKPGASVKVSCKASGYTFTDYYINWVRQAPGQRLEWIARIYPGNGNTYHNEKFKGRATLTRDKSASTAYMELSSLRSEDTAVYYCAREGLYYDYDRYFDYWGQGTLVTVSS
VL: DIVLTQSPLSLPVTLGQPASISCRASESVDTYGNSFMHWYQQRPGQSPRLLIYLASNLESGVPDRFSGSGSRTDFTLKISRVEAEDVGVYYCHQNNEDPPAFGGGTKVEIK
notes: humanized 5F12
B8: antibody designated 5F12 (antibody, V domains shown)
VH: QVQLKQSGTELVRPGASVKLSCKASGYTFTDYYINWVKQRPGQGLEWIARIYPGNGNTYHNEKFKGKATLTAEKSSSTAYMQLSSLTSEDSAVYFCAREGLYYDYDRYFDYWGQGTALTVSS
VL: NIVLTQSPASLAVSLGQRATISCRASESVDTYGNSFMHWYQQKPGQPPKLLIYLASNLESGVPARFSGSGSRTDFTLTIDPVEADDAATYYCHQNNEDPPAFGGGTKLEIK
notes: mouse hybridoma monoclonal; also called 5F12 Hybridoma

Key:
[1] = biological target: T1, human GFRAL expressed on cells; assay: cell-based or functional assay
[2] = biological target: T2, GFRα1; assay: SPR, GFRα1 on chip surface (FIGS. 13A and 13B)
[3] = biological target: T3, human GFRAL (analyte in Biacore assays); assay: Biacore SPR, antibody captured, human GFRAL injected
In short: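 Purified humanized antibodies captured (~100 RU) on anti-mouse Fc immobilized by amine coupling on a CM5 chip, with a reference flow cell.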

[4] = biological target: T1, human GFRAL expressed on cells; assay: cell-based or functional assay; remark: listed apart in the source
[5] = biological target: T1, human GFRAL expressed on cells; assay: cell-based or functional assay; remark: listed apart in the source
[6] = biological target: T4, mouse GFRAL expressed on cells; assay: cell-based or functional assay
[7] = biological target: T1, human GFRAL expressed on cells; assay: cell-based or functional assay; remark: listed apart in the source
[8] = biological target: T5, mouse GFRAL (analyte in Biacore assays); assay: Biacore SPR, antibody captured, GFRAL injected
[9] = biological target: T3, human GFRAL (analyte in Biacore assays); assay: Biacore SPR, antibody captured, GFRAL injected
[10] = biological target: T1, human GFRAL expressed on cells; assay: cell-based or functional assay; remark: listed apart in the source

Row | Binder | IC50, ELK1-luciferase reporter (hGFRAL/hRET) [1] [nM] | binding result [2] | Kd [3] [nM] | IC50, ERK phosphorylation in U2OS hGFRAL/hRET cells [4] [nM] | IC50, ELK1-luciferase reporter (hGFRAL/hRET) [5] [nM] | IC50, ELK1-luciferase reporter (mGFRAL/mRET) [6] [nM] | IC50, ERK phosphorylation in U2OS hGFRAL/hRET cells [7] [nM] | Kd [8] [nM] | koff [8] [s⁻¹] | Kd [9] [nM] | koff [9] [s⁻¹] | IC50, ELK1-luciferase reporter (hGFRAL/hRET) [10] [nM]
1 | B1 | 6.95 | no binding | < 0.01 | 3.3 |  |  |  |  |  |  |  | 
2 | B2 | 29.4 |  | < 0.01 | 15.1 |  |  |  |  |  |  |  | 
3 | B3 | 7.26 |  | 0.012 | 5.13 |  |  |  |  |  |  |  | 
4 | B4 | 4.63 |  | < 0.01 | 5.02 |  |  |  |  |  |  |  | 
5 | B5 | 5.7 |  | < 0.01 | 2.18 |  |  |  |  |  |  |  | 
6 | B6 | 4.02 |  | < 0.01 | 5.46 | 4.09 | 1.03 | 0.08 | < 0.1 | ~1e-05 | < 0.1 | ~1e-05 | 
7 | B7 |  |  | 0.06 |  |  |  |  |  |  |  |  | 7.29
8 | B8 |  |  | 0.038 |  | 0.834 | 6.28 | 0.06 | 2.2 | 0.0009 | < 0.1 | ~1e-05 | 5.4

Reference: patent US20170306031A1 (NGM BIOPHARMACEUTICALS, published 2017)
